Data on 1 protein can be found in FireProtDB (doi:10.1021/bi801431x).

Where “and” joins values, the source holds several entries; their conditions need not be identical. Identical values can stand only once.

For the series the following is noted: Escherichia coli (strain K12); pH 7.5; 25 °C; Urea; Fluorescence; Potassium phosphate 20 mM; reversible: Yes; whole UniProt chain shown.

B1: Aspartate aminotransferase wild type, P00509 (protein)
chain: MFENITAAPADPILGLADLFRADERPGKINLGIGVYKDETGKTPVLTSVKKAEQYLLENETTKNYLGIDGIPEFGRCTQELLFGKGSALINDKRARTAQTPGGTGALRVAADFLAKNTSVKRVWVSNPSWPNHKSVFNSAGLEVREYAYYDAENHTLDFDALINSLNEAQAGDVVLFHGCCHNPTGIDPTLEQWQTLAQLSVEKGWLPLFDFAYQGFARGLEEDAEGLRAFAAMHKELIVASSYSKNFGLYNERVGACTLVAADSETVDRAFSQMKAAIRANYSNPPAHGASVVATILSNDALRAIWEQELTDMRQRIQRMRQLFVNTLQEKGANRDFSFIIKQNGMFSFSGLTKEQVLRLREEFGVYAVASGRVNVAGMTPDNMAPLCEAIVAVL
In the case of B1, the “denaturant midpoint (higher = more stable)” value is 3.89 M and 5.02 M.
